Experimental data: article PMC8522838 (2021)

B1: SmBiT-MYC 1-190 [human] / TRRAP 2033-2283-LgBiT [not stated] (parent complex)
chain 1: MPLNVSFTNRNYDLDYDSVQPYFYCDEEENFYQQQQQSELQPPAPSEDIWKKFELLPTPPLSPSRRSGLCSPSYVAVTPFSLRGDNDGGGGSFSTADQLEMVTELLGGDMVNQSFICDPDDETFIKNIIIQDCMWSGFSAAAKLVSEKLASYQAARKDSGSPNPARGHSVCSTSSLYLQDLSAAASECID
chain 2: NSSGEGVNSVSSSIKRGLSVDSAQEVKRFRTATGAISAVFGRSQSLPGADSLLAKPIDKQHTDTVVNFLIRVACQVNDNTNTAGSPGEVLSRRCVNLLKTALRPDMWPKSELKLQWFDKLLMTVEQPNQVNYGNICTGLEVLSFLLTVLQSPAILSSFKPLQRGIAACMTCGNTKVLRAVHSLLSRLMSIFPTEPSTSSVASKYEELECLYAAVGKVIYEGLTNYEKATNANPSQLFGTLMILKSACSNNP

Variants of: B1
Assay: luminescence complementation (NanoBiT) in transfected cells; normalized for MYC expression level; parent: 100; read off a plot

Variant	percent of parent
chain 1 F138A	~24 % RLU to WT
chain 1 S136A	~77 % RLU to WT
chain 1 M134A	~43 % RLU to WT

Further lines, results first:

percent of parent	Variant
~35 % RLU to WT	chain 1 W135A
~102 % RLU to WT	chain 1 T58I
